We go through 2 molecules from patent US20260000764A1 (CITY OF HOPE, published 2026).

Numbering of substitutions follows the chain as printed.

In test [1] the target is T1, Biotinylated recombinant human IL-13Rα1 ectodomain with C-terminal biotin acceptor peptide and hexahistidine … (human, UniProt P78552 22-343, biotin on the biotin acceptor peptide (coexpressed with BirA ligase)).
T1 construct: extracellular domain; also called recombinant IL13Rα1; biotinylated IL13Rα1
T1 sequence: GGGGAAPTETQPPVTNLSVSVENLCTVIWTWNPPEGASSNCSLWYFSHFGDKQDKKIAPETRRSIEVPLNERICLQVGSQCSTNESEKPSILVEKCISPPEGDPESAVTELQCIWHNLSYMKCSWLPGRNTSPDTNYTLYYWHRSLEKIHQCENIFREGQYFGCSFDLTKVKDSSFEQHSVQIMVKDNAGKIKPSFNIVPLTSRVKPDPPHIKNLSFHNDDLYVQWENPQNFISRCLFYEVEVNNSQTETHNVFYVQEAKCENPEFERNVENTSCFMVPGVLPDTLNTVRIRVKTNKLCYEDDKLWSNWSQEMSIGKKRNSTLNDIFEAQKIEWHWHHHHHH
Kind of test: SPR; ratio column of the drawn table, IL13Rα1. The text has this: (§1) FIG. 2A-2F: IL-13Rα1 and IL-13Rα2 binding affinities of the IL-13 variant. (A-C) Surface plasmon resonance measurements of IL-13, IL-13 D7 and IL-13 C4 for IL-13Rα1. IL-13Rα1 was immobilized on the surface of the chip and the indicated doses of IL-13 or the two IL-13 mutants were flowed. (D-F) Surface plasmon resonance measurements of IL-13,IL-13 D7 and IL-13 C4 for IL-13Rα2. IL-13Rα2 was immobilized on the surface of the chip and the indicated doses of IL-13 or the two IL-13 mutants were flowed.
(§2) SPR experiments were conducted on a Biacore T100 instrument using a Biacore SA sensor chip (GE Healthcare). Biotinylated IL-13Rα1/IL-13Rα2 was captured at a low density (50-100 response units (RU)) and kinetics measurements were conducted at 30 μL/min. An unrelated biotinylated protein was immobilized as a reference surface for the SA sensor chip with matching RU to the experimental surface. All measurements were made using 3-fold serial dilutions of IL-13 agonists in the running buffer (1×HBS-P, 0.1% BSA). The IL-13Rα1/IL-13Rα2 bound to the chip surface was regenerated with 7 mM glycine (pH 3.0) and 250 mM NaCl. Kinetic parameters were determined using 120 s to 190 s of IL-13 agonist association time and 20 s to 1200 s dissociation time. All data fitting was performed using the Biacore T100 evaluation software version 2.0 with a 1:1 Langmuir binding model.

The target in test [2] is T2, Biotinylated recombinant human IL-13Rα2 ectodomain with C-terminal biotin acceptor peptide and hexahistidine … (human, UniProt Q14627 27-343, biotin on the biotin acceptor peptide (coexpressed with BirA ligase)).
T2 construct: extracellular domain; also called recombinant IL13Rα2; biotinylated IL13Rα2
T2 sequence: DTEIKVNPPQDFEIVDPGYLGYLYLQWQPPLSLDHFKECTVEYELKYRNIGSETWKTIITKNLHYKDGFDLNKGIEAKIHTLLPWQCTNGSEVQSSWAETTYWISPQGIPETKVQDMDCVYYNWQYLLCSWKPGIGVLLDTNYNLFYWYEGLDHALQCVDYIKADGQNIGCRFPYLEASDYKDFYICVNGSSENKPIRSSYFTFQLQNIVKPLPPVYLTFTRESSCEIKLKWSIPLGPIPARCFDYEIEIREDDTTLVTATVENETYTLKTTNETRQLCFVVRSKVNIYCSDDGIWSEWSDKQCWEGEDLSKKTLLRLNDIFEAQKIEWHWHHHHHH
The experiment in a line: SPR; ratio of the affinities for IL13Rα2 and IL13Rα1 (reference: IL13Rα1). Here is the method:
as §2

The target in test [3] is T2, Biotinylated recombinant human IL-13Rα2 …. The experiment in a line: SPR, Biacore T100, biotinylated receptor captured on SA chip, cytokine flowed, 1:1 Langmuir fit. The method, then:
as §2

Test [4] shares this target. Kind of test: SPR, IL-13Rα2 immobilized on the chip, IL-13 C4 flowed; panel titled IL-13C4/IL-13Rα2.
Description: as §1, §2

Test [5] shares this target. The experiment in a line: SPR (Biacore T100), biotinylated IL-13Rα2 captured on SA chip, IL-13 C4 flowed, 1:1 Langmuir fit.
Description: as §1, §2

Test [6] addresses T1, Biotinylated recombinant human IL-13Rα1 …. The experiment in a line: SPR (Biacore T100), biotinylated IL-13Rα1 captured on SA chip, IL-13 C4 flowed; Ka and Kd cells are empty. Here is the method: as §2
The target is the same in test [7]. The experiment in a line: SPR, IL-13Rα1 immobilized on the chip, IL-13 C4 flowed; panel titled IL-13C4/IL-13Rα1; Kon and Koff cells empty.
Description: as §1, §2

In test [8] the target is T2, Biotinylated recombinant human IL-13Rα2 …. The experiment in a line: SPR, IL-13Rα2 immobilized on the chip, IL-13 D7 flowed; panel titled IL-13D7/IL-13Rα2.
Description: as §1, §2

For test [9] the target is unchanged. Kind of test: SPR (Biacore T100), biotinylated IL-13Rα2 captured on SA chip, IL-13 D7 flowed, 1:1 Langmuir fit. The method, then: as §2
The target in test [10] is T1, Biotinylated recombinant human IL-13Rα1 …. Kind of test: SPR (Biacore T100), biotinylated IL-13Rα1 captured on SA chip, IL-13 D7 flowed; Ka and Kd cells are empty. The method, then: as §2
Test [11] has the same target. Kind of test: SPR, IL-13Rα1 immobilized on the chip, IL-13 D7 flowed; panel titled IL-13D7/IL-13Rα1; Kon and Koff cells empty.
Description: as §1, §2

B1: IL13 C4 variant, soluble recombinant protein with C-terminal hexahistidine tag (ligand)
chain: GPVPPSTAVRELIEELVNITQNQKAPLCNGSMVWSINLTAGMYCAALESLINVSGCSAIEKTQRMLSGFCPHKVSAGQFSSLHVRDTRIEVAQFVKDLLNHLKELFTEGQFNHHHHHH
notes: also called C4 mutein
Consider B1, for which the KDwt/KD mut in test [1] amounted to 8200. Further, the “fold stronger affinity for IL13Rα2 relative to IL13Rα1” value in test [2] was 92000 fold. In addition, the Kd in [3] was 0.393 nM; in test [6], 36 µM; in [7], 36 µM. In addition, the koff in test [4] and in test [5] was 0.000764 s⁻¹ in each case. Also, the kon in test [4] and in [5] was 1.94e+06 M⁻¹ s⁻¹ in each case.

B2: IL13 D7 variant, soluble recombinant protein with C-terminal hexahistidine tag (ligand)
chain: B1 chain with V9A, V17F, Q63K, S80P, R85K, D86K, N100I, K103R, E104K, T107K
notes: also called D7 mutein
Take B2: in [1], the KDwt/KD mut was 940. Further, the “fold stronger affinity for IL13Rα2 relative to IL13Rα1” value in test [2] turned out to be 1.4e+06 fold. Moreover, the results for the Kd in [3], in test [10] and in test [11] were 0.003 nM, 4.1 µM and 4.1 µM, respectively. In addition, the koff in test [8] and in test [9] was 5.37e-05 s⁻¹ each time. Further, the kon in [8] and in test [9] was 1.77e+07 M⁻¹ s⁻¹ throughout.
